This is an account of results in paper PMC2920317, “CHL1 Is a Selective Organizer of the Presynaptic Machinery Chaperoning the SNARE Complex” (PLoS ONE, 2010).

This assay has as its target T1, Close homologue of L1 (CHL1) (mouse (endogenous in brain), UniProt P70232 26-1209).
T1 construct: CHL1, cell adhesion molecule of the immunoglobulin superfamily, endogenous in adult mouse brain; also called CALL; source: endogenous, mouse brain lysate; synaptosomes; synaptic vesicles and synaptic plasma membranes
T1 sequence (looked up): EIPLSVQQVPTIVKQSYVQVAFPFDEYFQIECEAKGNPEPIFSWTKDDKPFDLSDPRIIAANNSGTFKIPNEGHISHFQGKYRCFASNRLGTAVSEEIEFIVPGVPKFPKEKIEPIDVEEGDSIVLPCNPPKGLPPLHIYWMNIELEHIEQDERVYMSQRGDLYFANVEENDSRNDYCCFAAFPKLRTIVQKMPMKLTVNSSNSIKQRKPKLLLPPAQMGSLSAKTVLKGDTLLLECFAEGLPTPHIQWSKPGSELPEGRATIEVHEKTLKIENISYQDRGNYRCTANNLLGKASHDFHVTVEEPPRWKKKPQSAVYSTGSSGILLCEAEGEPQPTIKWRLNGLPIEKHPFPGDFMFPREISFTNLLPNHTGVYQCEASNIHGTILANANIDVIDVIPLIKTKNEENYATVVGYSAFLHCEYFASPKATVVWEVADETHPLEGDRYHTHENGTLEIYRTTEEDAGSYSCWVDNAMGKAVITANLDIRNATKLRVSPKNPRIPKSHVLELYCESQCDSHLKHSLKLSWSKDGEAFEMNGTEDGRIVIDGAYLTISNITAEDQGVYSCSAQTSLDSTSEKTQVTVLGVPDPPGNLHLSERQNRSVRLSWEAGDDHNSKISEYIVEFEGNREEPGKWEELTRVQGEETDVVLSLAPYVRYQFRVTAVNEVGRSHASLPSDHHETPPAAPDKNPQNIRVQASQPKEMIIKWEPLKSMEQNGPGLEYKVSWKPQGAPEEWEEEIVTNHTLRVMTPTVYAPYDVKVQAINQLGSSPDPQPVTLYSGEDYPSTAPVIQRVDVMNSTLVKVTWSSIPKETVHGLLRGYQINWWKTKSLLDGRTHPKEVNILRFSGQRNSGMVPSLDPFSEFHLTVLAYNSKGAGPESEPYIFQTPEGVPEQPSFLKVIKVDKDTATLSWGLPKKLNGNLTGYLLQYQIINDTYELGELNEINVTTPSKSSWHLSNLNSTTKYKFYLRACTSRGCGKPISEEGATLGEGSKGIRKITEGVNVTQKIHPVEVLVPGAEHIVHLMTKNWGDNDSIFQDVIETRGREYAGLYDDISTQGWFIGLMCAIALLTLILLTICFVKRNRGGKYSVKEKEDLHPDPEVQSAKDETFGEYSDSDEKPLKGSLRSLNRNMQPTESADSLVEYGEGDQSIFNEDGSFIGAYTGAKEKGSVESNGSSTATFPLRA
The assay can be described thus: co-IP; CHL1 immunoprecipitated from adult mouse brain lysates (50 mM Tris-HCl pH 7.5, 150 mM NaCl, 1% Nonidet P-40, 1 mM EDTA); protein A/G-agarose; Western blot; mock IP with non-specific Ig as control. The settings on record: partners not purified. For orientation: In western blotting, separated proteins are transferred to a membrane and probed.

B1: small glutamine-rich tetratricopeptide repeat-containing protein, ubiquitous isoform (αSGT) (natural protein, mouse (endogenous in brain), UniProt Q8BJU0 1-315, looked up)
chain: MDNRKRLAYAIIQFLHGQLRHGGLSCDAQESLEVAIQCLETAFGVTLEDSDLALPQTLPEIFEAATSSKQEMPQDPRAPDRTPPSEEDSAEAERLKTEGNEQMKLENFEAAVHLYGKAIELNPANAVYFCNRAAAYSKLGNYVGAVQDCERAIGIDPGYSKAYGRMGLALSSLNKHAEAVAYYKKALELDPDNDTYKSNLKIAELKLREAPSPTGGVGSLDIAGLLNNPHFITMASSLMNSPQLQQLMSGMISGGHNPLGTPGSSPQQSDLASLIQAGQQFAQQMQQQNPEFVEQIRSQVVRSRTPSASHEEQQE
notes: αSGT, endogenous in adult mouse brain; also called alphaSGT; source: endogenous, mouse brain lysate; synaptic vesicles and synaptic plasma membranes
With B1, the “percent of the total pool co-immunoprecipitated” value stood at 46 ± 8.5%.

B2: syntaxin1B (natural protein, mouse (endogenous in brain), UniProt P61264 1-288, looked up)
chain: MKDRTQELRSAKDSDDEEEVVHVDRDHFMDEFFEQVEEIRGCIEKLSEDVEQVKKQHSAILAAPNPDEKTKQELEDLTADIKKTANKVRSKLKAIEQSIEQEEGLNRSSADLRIRKTQHSTLSRKFVEVMTEYNATQSKYRDRCKDRIQRQLEITGRTTTNEELEDMLESGKLAIFTDDIKMDSQMTKQALNEIETRHNEIIKLETSIRELHDMFVDMAMLVESQGEMIDRIEYNVEHSVDYVERAVSDTKKAVKYQSKARRKKIMIIICCVVLGVVLASSIGGTLGL
notes: syntaxin1B, SNARE complex protein, endogenous in adult mouse brain; also called synatxin1B; source: endogenous, mouse brain lysate and synaptosomes; immunoprecipitated from synaptosomes and held on beads
Turning to B2, the “percent of the total pool co-immunoprecipitated” value is 15 ± 3.1%.
